The values that follow come from the supplement of paper PMC9170038.

This data set concerns MS2 coat protein. The data set is described as follows: apparent KD of MS2 coat protein; designed switch direction (-1 OFF switch, 1 ON switch): 1; higher = weaker reporter binding. Put shortly:
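The reported apparent KD is a per-design median over clusters, from curve fits of normalised cluster fluorescence. Protein titrations used SNAP-549-labelled MS2 coat protein, doubled from 0.7 or 1.5 nM to 3 µM, in Tris-HCl pH 7.5 buffer with KCl, MgCl2, BSA, DTT, tRNA and Tween-20, with no input, 200 uM small-molecule ligand, or an oligonucleotide input. The RNA switches were transcribed on Illumina chips by stalled E. coli RNA polymerase.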

[1] abbreviates: Eterna round: R95, input ligand: FMN 200 uM.
[2] abbreviates: Eterna round: R95, input ligand: microRNA oligo, concentration not stated.
Setting [3] is: Eterna round: R95, input ligand: none.
[4] abbreviates: input ligand: microRNA oligo, concentration not stated.

Consider “UUAAGCCACGGGCAGGAUAUGUAUUAAUAUACAUGAGGAUCACCCAUGUGCAGGUGUAACACCUGACAGAAGGGCCAAUCGCGGC [Soondi - 5] (puzzle: Same State 2)”, for which the “apparent KD of MS2 coat protein” value turned out to be 35 nM under setting [1], 177 nM under setting [2] and 286 nM under setting [3].

With “UUAAUAAAUCAAGGAUAUCACGUCGUUUAGACGUGAGAAGGUGAUCAUAACAUGAGGAUCACCCAUGUAUUACAUGAAUAUUAA [SSNG1/1-B3] (Eterna round: R96, puzzle: Same State NG 1)”, the “apparent KD of MS2 coat protein” value turned out to be 1180 nM (input ligand: FMN 200 uM), 778 nM under setting [4] and 1570 nM (input ligand: none).

As to “UUAAUGAUGUAAGGAUAUACAUGAGGAUUUCUCGUAGAAGGUACAGGACAUGAGGAUCACCCAUGUAUCGCUCCGUAGAGCGUA [JL SSNG1 1.11] (Eterna round: R96, puzzle: Same State NG 1)”, the “apparent KD of MS2 coat protein” value runs as follows: (input ligand: FMN 200 uM) 136 nM; under setting [4], 292 nM; (input ligand: none) 356 nM.

On to “UUAAUUAAUUAAUUAUACAUGAGGAUCACCCAUGUAAGUGAUCAGGAUAUCAGCUCGAUUAGAGCUGAGAAGGGAUACAUGUAA [SSNG3/13-A2] (Eterna round: R96, puzzle: Same State NG 3)”, for which the “apparent KD of MS2 coat protein” value (input ligand: FMN 200 uM) stood at 142 nM, the “apparent KD of MS2 coat protein” value under setting [4] was 164 nM and the “apparent KD of MS2 coat protein” value (input ligand: none) worked out at 191 nM.

“UUACUCAUGUAAGGAUAUGCAGCCGAAACGGCUGCAGAAGGUACUAUAAUACAUGAGGAUCACCCAUGUCUUUUUAAUUUUUAC [Mat - Same State NG 1 - JL mod - D70] (Eterna round: R96, puzzle: Same State NG 1)”: the “apparent KD of MS2 coat protein” value is 47.5 nM (input ligand: FMN 200 uM), 37 nM under setting [4] and 44.1 nM (input ligand: none).

As for “UUAGAAUUGCAAGGAUAUCUAAUUUAGAUAGUAAGAGAAGGUGCUUUAUAGUUACAUGAGGAUCACCCAUGUUUUUUUUUUUAU [JR_SSNG1_Sub060] (Eterna round: R96, puzzle: Same State NG 1)”, the “apparent KD of MS2 coat protein” value turned out to be 42.3 nM (input ligand: FMN 200 uM), 36.3 nM under setting [4] and 49.9 nM (input ligand: none).

In the case of “UUAGAAUUGCAAGGAUAUCUUAUUUAGAUAGUAAGAGAAGGUGCUUUAUAGUUACAUGAGGAUCACCCAUGUAUUUCUUUUUAU [JR_SSNG1_Sub061] (Eterna round: R96, puzzle: Same State NG 1)”, under setting [4], the “apparent KD of MS2 coat protein” value was 16.6 nM.

On to “UUAGUCAUGUAAGGAUAUGCAGCCGAAACGGCUGCAGAAGGUACUAUAAUUACAUGAGGAUCACCCAUGUUAUAAAAUUUAUAU [Mat - Same State NG 1 - JL mod - D62] (Eterna round: R96, puzzle: Same State NG 1)”, for which the “apparent KD of MS2 coat protein” value worked out at 23.4 nM (input ligand: FMN 200 uM), 28.7 nM under setting [4] and 41.2 nM (input ligand: none).

In the case of “UUAUCACAUGAGGAUCACCCAUGUUAUACUUUUUUAGGAUAUUUUAUGUAUGACCAAAUAAAAGAAGGAGGAAUAA [flagellum_key_01] (puzzle: Same State 1)”, the “apparent KD of MS2 coat protein” value by setting is: under setting [1], 31.2 nM; under setting [2], 44.4 nM; under setting [3], 47 nM.

Consider “UUCACCUUUUUUUACAUGAGGAUCACCCAUGUUUUCCCUACGUAGGAUAUCGAUGCUUGAUUGUUCGAGAAGGACGUUGUAAGU [JR_SSND3_Sub056] (Eterna round: R96, puzzle: Same State NG 3)”, for which the “apparent KD of MS2 coat protein” value (input ligand: FMN 200 uM) came out at 29.6 nM, the “apparent KD of MS2 coat protein” value under setting [4] was found to be 20.7 nM and the “apparent KD of MS2 coat protein” value (input ligand: none) worked out at 33.7 nM.

In the case of “UUCACCUUUUUUUACAUGAGGAUCACCCAUGUUUUUUUUACGUAGGAUAUCGAUGCUUGUUUUUUCGAGAAGGACGAUGUAAGU [JR_SSND3_Sub052] (Eterna round: R96, puzzle: Same State NG 3)”, the “apparent KD of MS2 coat protein” value worked out at 16.7 nM (input ligand: FMN 200 uM), 12.2 nM under setting [4] and 18.2 nM (input ligand: none).

Consider “UUGAAGAAUUAAGGAUAUUGAAUACAUAUGUUUAACAUGAGGAUCACCCAUGUGGGUUGCGGUAUCGAGAAGGUAAAUUACUAG [JL SSNG2 1.49] (Eterna round: R96, puzzle: Same State NG 2)”, for which the “apparent KD of MS2 coat protein” value by setting is: (input ligand: FMN 200 uM) 112 nM; under setting [4], 76.3 nM; (input ligand: none) 119 nM.

With “UUGAAGAAUUAAGGAUAUUGAGUACAUAUGUAAAACAUGAGGAUCACCCAUGUGGGUUGCGGUAUCGAGAAGGUAAAUUAAUAG [Mat - same State NG 2 - JL mod - D70] (Eterna round: R96, puzzle: Same State NG 2)”, the “apparent KD of MS2 coat protein” value stood at 87 nM (input ligand: FMN 200 uM), 67.6 nM under setting [4] and 96.3 nM (input ligand: none).

For the sequence “UUGAAGAAUUAAGGAUAUUGAUUACAUAUGUUUAACAUGAGGAUCACCCAUGUGGGUUGCGGUAUCGAGAAGGUAAAAUAAUAG [Mat - same State NG 2 - JL mod - D82] (Eterna round: R96, puzzle: Same State NG 2)”, the “apparent KD of MS2 coat protein” value reads like this: (input ligand: FMN 200 uM) 181 nM; under setting [4], 231 nM; (input ligand: none) 258 nM.

Regarding “UUGAUGUACUGAGGAUAUCGUGUCGUCUGUUUUUACAUGAGGAUCACCCAUGUGGGUUGUGGUAUCGAGAAGGCAGUUUUCUUA [JR_SSNG2_Sub030] (Eterna round: R96, puzzle: Same State NG 2)”, the “apparent KD of MS2 coat protein” value (input ligand: FMN 200 uM) came out at 306 nM, the “apparent KD of MS2 coat protein” value under setting [4] worked out at 560 nM and the “apparent KD of MS2 coat protein” value (input ligand: none) was 582 nM.

For “UUGCUCGUGUGAGGAUAUGCAGCCGUUUCGGCUGCAGAAGGUACUAUAAUACAUGAGGAUCACCCAUGUCUCUGUUGUUUCGUG [salish99_SSNG1_r04_931] (Eterna round: R96, puzzle: Same State NG 1)”, the “apparent KD of MS2 coat protein” value is, setting by setting: (input ligand: FMN 200 uM) 27.3 nM; under setting [4], 21 nM; (input ligand: none) 27.5 nM.

For “UUGCUCGUGUGAGGAUAUGCAGCCGUUUCGGCUGCAGAAGGUACUAUAAUACAUGAGGAUCACCCAUGUCUCUGUUGUUUGGUG [salish99_SSNG1_r04_930] (Eterna round: R96, puzzle: Same State NG 1)”, the “apparent KD of MS2 coat protein” value worked out at 69.7 nM (input ligand: FMN 200 uM), 49.4 nM under setting [4] and 63.7 nM (input ligand: none).

For the sequence “UUGCUCGUGUGAGGAUAUGCAGCCGUUUCGGCUGCAGAAGGUACUAUAAUACAUGAGGAUCACCCAUGUCUCUGUUGUUUUGUG [salish99_SSNG1_r04_929] (Eterna round: R96, puzzle: Same State NG 1)”, the “apparent KD of MS2 coat protein” value was found to be 26.9 nM (input ligand: FMN 200 uM), 20.8 nM under setting [4] and 25.4 nM (input ligand: none).

“UUGCUCGUGUGAGGAUAUGCCGCCGUUUCGGCUGCAGAAGGUACUCUUUUACAUGAGGAUCACCCAUGUCUCUGUUGUUUCGUG [salish99_SSNG1_r04_937] (Eterna round: R96, puzzle: Same State NG 1)”: the “apparent KD of MS2 coat protein” value is, setting by setting: (input ligand: FMN 200 uM) 252 nM; under setting [4], 96.4 nM; (input ligand: none) 148 nM.

For the sequence “UUGGGUUUGCGAGGAUAUCGUUUGUGAUUUGAUCGAGAAGGCGCUAUUUAAAUUAUUUUAACAUUACAUGAGGAUCACCCAUGU [JR_SSNG1_Sub022] (Eterna round: R96, puzzle: Same State NG 1)”, under setting [4], the “apparent KD of MS2 coat protein” value came out at 14.8 nM.

For the sequence “UUGGUGUAGAUACAGGAUAUGUUGCUUGUUACAUGAGGAUCACCCAUGUAUCUAUGAGAUUAAAUGCAGAAGGGUGCACAUCACU [salish99_ss2_r3_091] (puzzle: Same State 2)”, the “apparent KD of MS2 coat protein” value runs as follows: under setting [1], 52.9 nM; under setting [2], 124 nM; under setting [3], 169 nM.

As to “UUGUUUUGAAAUUAACAUGAGGAUCACCCAUGUCUUGACACAGAGGAUAUACAUGAAUGUAGGUAGUAGAAGGCUGUUUAGUGU [JR_SSNG3_Sub098] (Eterna round: R96, puzzle: Same State NG 3)”, under setting [4], the “apparent KD of MS2 coat protein” value is 57.2 nM.

With “UUGUUUUGUAAUUAACAUGAGGAUCACCCAUGUCUUGGCUCAGAGGAUAUACAUGUUUGAUUGUAGUAGAAGGCUGAAUGUUGU [JR_SSNG3_Sub094] (Eterna round: R96, puzzle: Same State NG 3)”, the “apparent KD of MS2 coat protein” value (input ligand: FMN 200 uM) was 95.2 nM, the “apparent KD of MS2 coat protein” value under setting [4] was 96 nM and the “apparent KD of MS2 coat protein” value (input ligand: none) is 131 nM.

Consider “UUUAGGAGUCAAGGAUAUGCUACCGUUUCGGUAGCAGAAGGUGAUCACAUGAGGAUCACCCAUGUAUGCAUGCGUGAGCGUGCU [JL SSNG1 3.62] (Eterna round: R96, puzzle: Same State NG 1)”, for which the “apparent KD of MS2 coat protein” value under setting [4] turned out to be 24.1 nM.

On to “UUUAGUUGCGGGCAGGAUAUGUAUUAAAAUACAUGAGGAUCACCCAUGUGGGACCGAAAAGGUCUACAGAAGGGCCAAUCGCGAC [Laonerce - 21] (puzzle: Same State 2)”, for which the “apparent KD of MS2 coat protein” value under setting [1] was 17.1 nM, the “apparent KD of MS2 coat protein” value under setting [2] is 53.3 nM and the “apparent KD of MS2 coat protein” value under setting [3] turned out to be 77.1 nM.

Regarding “UUUAUAUUCAGAGGAUAUUAAAGUAGUAUAACAUAAGAAGGCUGUUUGUUUUGUAAAGUAAUUCUACAUGAGGAUCACCCAUGU [JR_SSNG1_Sub085] (Eterna round: R96, puzzle: Same State NG 1)”, the “apparent KD of MS2 coat protein” value under setting [4] was 15.8 nM.

For “UUUAUUAAUGCAGGAUAUGAUUAACAUGAGGAUCACCCAUGUGGUGUUGUGAGUAAGGAGAGUGAUCAGAAGGGCAUUUUUUUU [JMF's solution 39] (Eterna round: R96, puzzle: Same State NG 2)”, the “apparent KD of MS2 coat protein” value reads like this: (input ligand: FMN 200 uM) 524 nM; under setting [4], 430 nM; (input ligand: none) 402 nM.

As to “UUUAUUUAUGCAGGAUAUGAUUAACAUGAGGAUCACCCAUGUGGUGUUGUGAGUAAGGAGAGUGAUCAGAAGGGCAUUUUUUUU [JMF's solution 76] (Eterna round: R96, puzzle: Same State NG 2)”, the “apparent KD of MS2 coat protein” value is 610 nM (input ligand: FMN 200 uM), 396 nM under setting [4] and 487 nM (input ligand: none).
